Target: T1, rat testis FSH receptor (rat (endogenous in rat testis), UniProt P20395 18-692)
T1 sequence (looked up): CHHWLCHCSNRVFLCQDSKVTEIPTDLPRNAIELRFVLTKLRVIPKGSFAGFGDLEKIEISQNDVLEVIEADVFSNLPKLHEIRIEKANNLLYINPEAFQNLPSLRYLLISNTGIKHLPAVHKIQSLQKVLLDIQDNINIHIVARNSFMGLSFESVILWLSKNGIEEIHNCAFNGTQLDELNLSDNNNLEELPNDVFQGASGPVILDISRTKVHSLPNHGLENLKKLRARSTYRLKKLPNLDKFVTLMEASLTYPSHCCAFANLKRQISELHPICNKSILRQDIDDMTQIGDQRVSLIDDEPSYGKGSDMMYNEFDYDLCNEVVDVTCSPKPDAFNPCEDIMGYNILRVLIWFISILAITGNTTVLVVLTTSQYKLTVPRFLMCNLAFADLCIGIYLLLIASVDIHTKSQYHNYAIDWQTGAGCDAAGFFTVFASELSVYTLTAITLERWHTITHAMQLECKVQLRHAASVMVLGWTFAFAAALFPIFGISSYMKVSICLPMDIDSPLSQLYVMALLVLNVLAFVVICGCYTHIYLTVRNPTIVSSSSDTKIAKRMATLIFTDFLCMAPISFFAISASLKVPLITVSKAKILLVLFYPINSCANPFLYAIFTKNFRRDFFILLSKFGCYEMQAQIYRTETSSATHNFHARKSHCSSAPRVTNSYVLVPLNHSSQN
Assay: radioligand binding

ID50: 269 ng
B1: human pituitary hFSH^24 glycoform (fully-glycosylated hFSH^24) (complex)
chain 1: not shown
chain 2: NSCELTNITIAIEKEECRFCISINTTWCAGYCYTRDLVYKDPARPKIQKTCTFKELVYETVRVPGCAHHADSLYTYPVATQCHCGKCDSDSTDCTVRGLGPSYCSFGEMKE
modifications: N-glycans at Asn52 and Asn78 | N-glycans at Asn7 and Asn24
